Measurements taken from patent US5210024A, “Isolation of strains of Saccharomyces cerevisiae having altered α-acetyltransferase activity” (priority 1991, dated 1993).
Ends that are not written are not given here.

Key:
[1] = biological target: T1, M-N^α -AT (methionine N^α -acetyltransferase) (Saccharomyces cerevisiae, UniProt Q06504); assay: N^α-acetylation of synthetic peptides by methionine N^α-acetyltransferase; assay type: biochemical; set-up: concentration or dose not given beside the values
T1 construct: endogenous in cells; host or cells: Saccharomyces cerevisiae aaa1 (AAA1-null) mutant
T1 sequence (Q06504 1-195): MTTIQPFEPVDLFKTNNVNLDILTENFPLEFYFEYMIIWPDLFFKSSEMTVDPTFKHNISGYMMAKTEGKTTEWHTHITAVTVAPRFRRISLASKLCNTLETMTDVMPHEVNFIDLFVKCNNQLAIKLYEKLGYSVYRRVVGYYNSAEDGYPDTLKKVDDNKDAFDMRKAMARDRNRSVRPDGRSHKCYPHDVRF
T1 sequence (Q12387 2-796 partner limits assumed): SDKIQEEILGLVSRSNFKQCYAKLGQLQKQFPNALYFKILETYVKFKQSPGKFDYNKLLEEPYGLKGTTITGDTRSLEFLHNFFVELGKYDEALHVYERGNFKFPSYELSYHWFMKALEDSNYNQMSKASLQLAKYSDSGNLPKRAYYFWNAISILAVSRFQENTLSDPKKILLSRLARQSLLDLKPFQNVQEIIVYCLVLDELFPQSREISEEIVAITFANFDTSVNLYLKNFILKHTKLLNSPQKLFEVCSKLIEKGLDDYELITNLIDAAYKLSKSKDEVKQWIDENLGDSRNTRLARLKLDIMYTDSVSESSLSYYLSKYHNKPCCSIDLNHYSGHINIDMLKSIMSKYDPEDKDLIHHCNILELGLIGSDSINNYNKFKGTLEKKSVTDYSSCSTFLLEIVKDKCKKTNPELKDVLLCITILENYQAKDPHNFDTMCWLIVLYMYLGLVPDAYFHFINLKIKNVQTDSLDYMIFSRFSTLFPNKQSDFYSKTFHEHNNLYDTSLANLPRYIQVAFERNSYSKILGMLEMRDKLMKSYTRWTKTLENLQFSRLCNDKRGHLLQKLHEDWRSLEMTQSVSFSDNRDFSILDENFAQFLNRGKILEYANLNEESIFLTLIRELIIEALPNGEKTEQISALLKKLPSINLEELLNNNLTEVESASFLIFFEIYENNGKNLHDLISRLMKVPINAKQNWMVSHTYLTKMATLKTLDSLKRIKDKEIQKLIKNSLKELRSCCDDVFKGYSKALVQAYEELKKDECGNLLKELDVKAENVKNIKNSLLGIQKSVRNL
Description: (§1) Aliquots of the lysate were added to 1.5 ml Eppendorf tubes containing a reaction mixture of 50 mM HEPES, pH 7.4, 150 mM KCl, 1 mM DTT, 25 μM[^3 H]acetyl coenzyme A (0.5 μCi) and 50 μM ACTH (1-24) with an adjusted final volume of 100 μl. The assay mixture was incubated at 30 C for 30 min. The reaction was stopped by adding 0.5 M acetic acid and chilled in an ice bath. […] The radioactivity in the control represented acetylation of endogenous compounds is subtracted from each sample determination. One unit of activity is defined as 1 pmol of acetyl residues incorporated into ACTH (1-24) under standard assay conditions.
(§2) This second N^α -acetyltransferase is a methionine N^α -acetyltransferase activity, and is designated as "M-N^α -AT." This second N^α -acetyltransferase is the subject of U.S. patent application of John A. Smith and Fang-Jen S. Lee, filed Oct. […] In order to compare the relative specificity and activity of the AAA1 N^α -acetyltransferase ("N^α -AT") of the present invention with the methionine N^α -acetyltransferase activity (M-N^α -AT) of U.S. patent application of John A. Smith and Fang-Jen S. Lee, filed Oct. […] These peptides were assessed for their ability to serve as substrates for the two enzymes. In Table 2, the effect of the amino terminal amino acid on activity is investigated; in Table 3, the effect of the penultimate amino terminal amino acid on activity is investigated.

[2] = biological target: T2, N^α -AT (AAA1 N^α -acetyltransferase) (Saccharomyces cerevisiae, UniProt P07347+P12945); assay: N^α-acetylation of synthetic peptides by AAA1 N^α-acetyltransferase ([3H]acetyl coenzyme A incorporation); assay type: biochemical; set-up: concentration or dose not given beside the values
T2 construct: isolates N^α -acetyltransferase by treating yeast cells with lyticase; endogenous in cells; host or cells: Saccharomyces cerevisiae cells (native enzyme)
T2 sequence (P12945 2-854): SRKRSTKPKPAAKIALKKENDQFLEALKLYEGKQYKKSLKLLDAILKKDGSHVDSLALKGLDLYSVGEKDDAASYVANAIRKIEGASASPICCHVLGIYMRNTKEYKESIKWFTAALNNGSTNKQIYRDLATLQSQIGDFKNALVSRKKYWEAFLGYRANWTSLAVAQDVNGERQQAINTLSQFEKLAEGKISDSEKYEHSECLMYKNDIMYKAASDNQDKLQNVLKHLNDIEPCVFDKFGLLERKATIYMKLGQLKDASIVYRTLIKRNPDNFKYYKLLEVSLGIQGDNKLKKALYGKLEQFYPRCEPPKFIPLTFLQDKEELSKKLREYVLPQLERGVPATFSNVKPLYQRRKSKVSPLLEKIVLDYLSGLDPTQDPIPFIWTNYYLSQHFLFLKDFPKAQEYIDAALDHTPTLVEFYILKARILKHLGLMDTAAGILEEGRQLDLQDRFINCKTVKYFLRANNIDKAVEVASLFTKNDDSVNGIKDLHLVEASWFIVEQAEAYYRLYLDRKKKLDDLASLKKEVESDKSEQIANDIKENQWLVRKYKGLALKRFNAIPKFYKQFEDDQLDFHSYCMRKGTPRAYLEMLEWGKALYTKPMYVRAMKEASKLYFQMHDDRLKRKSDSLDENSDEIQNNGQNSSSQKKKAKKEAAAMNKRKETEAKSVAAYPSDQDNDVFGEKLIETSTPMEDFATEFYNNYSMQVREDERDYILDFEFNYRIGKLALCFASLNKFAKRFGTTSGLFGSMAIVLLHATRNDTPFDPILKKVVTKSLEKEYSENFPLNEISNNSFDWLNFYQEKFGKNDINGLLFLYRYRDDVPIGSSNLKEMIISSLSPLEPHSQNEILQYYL
T2 sequence (P07347 1-238): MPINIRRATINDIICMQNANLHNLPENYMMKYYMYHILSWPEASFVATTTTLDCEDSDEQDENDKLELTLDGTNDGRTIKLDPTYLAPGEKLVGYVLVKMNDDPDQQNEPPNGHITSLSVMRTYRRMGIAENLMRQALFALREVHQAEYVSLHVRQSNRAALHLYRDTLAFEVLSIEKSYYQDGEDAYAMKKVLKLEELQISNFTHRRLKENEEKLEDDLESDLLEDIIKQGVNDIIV
Description: as §1, §2

[3] = Table 2: relative activity for N^α-acetylation of synthetic peptide substrate, influence of the amino terminal residue
[4] = Table 3: relative activity for N^α-acetylation of synthetic peptide substrate, influence of the penultimate amino terminal residue

Substance	Activity (%) (mean activity ± S.D.) M-N^α -AT [1, 3]	Activity (%) (mean activity ± S.D.) N^α -AT [2, 3]	Activity (%) (mean activity ± S.D.) M-N^α -AT [1, 4]	Activity (%) (mean activity ± S.D.) N^α -AT [2, 4]
AIPETQKGVIFYESHGKLEYKDIP (AIPETQKGVIFYESHGKLEYKDIP)	0	0	–	–
CIPETQKGVIFYESHGKLEYKDIP (CIPETQKGVIFYESHGKLEYKDIP)	0	0	–	–
DIPETQKGVIFYESHGKLEYKDIP (DIPETQKGVIFYESHGKLEYKDIP)	0	0	–	–
EIPETQKGVIFYESHGKLEYKDIP (EIPETQKGVIFYESHGKLEYKDIP)	0	0	–	–
FIPETQKGVIFYESHGKLEYKDIP (FIPETQKGVIFYESHGKLEYKDIP)	0	9 ± 2	–	–
GIPETQKGVIFYESHGKLEYKDIP (GIPETQKGVIFYESHGKLEYKDIP)	0	23 ± 3	–	–
HIPETQKGVIFYESHGKLEYKDIP (HIPETQKGVIFYESHGKLEYKDIP; also: tritium label)	0	19 ± 2	–	–
IIPETQKGVIFYESHGKLEYKDIP (IIPETQKGVIFYESHGKLEYKDIP)	0	0	–	–
KIPETQKGVIFYESHGKLEYKDIP (KIPETQKGVIFYESHGKLEYKDIP)	0	0	–	–
LIPETQKGVIFYESHGKLEYKDIP (LIPETQKGVIFYESHGKLEYKDIP)	0	0	–	–
MIPETQKGVIFYESHGKLEYKDIP (MIPETQKGVIFYESHGKLEYKDIP)	0	15 ± 2	–	–
NIPETQKGVIFYESHGKLEYKDIP (NIPETQKGVIFYESHGKLEYKDIP)	0	0	–	–
PIPETQKGVIFYESHGKLEYKDIP (PIPETQKGVIFYESHGKLEYKDIP)	0	70 ± 4	–	–
QIPETQKGVIFYESHGKLEYKDIP (QIPETQKGVIFYESHGKLEYKDIP)	0	0	–	–
RIPETQKGVIFYESHGKLEYKDIP (RIPETQKGVIFYESHGKLEYKDIP)	0	0	–	–
SAPETQKGVIFYESHGKLEYKDIP (SAPETQKGVIFYESHGKLEYKDIP)	–	–	0	168 ± 8
SCPETQKGVIFYESHGKLEYKDIP (SCPETQKGVIFYESHGKLEYKDIP)	–	–	0	136 ± 7
SDPETQKGVIFYESHGKLEYKDIP (SDPETQKGVIFYESHGKLEYKDIP)	–	–	0	171 ± 9
SEPETQKGVIFYESHGKLEYKDIP (SEPETQKGVIFYESHGKLEYKDIP)	–	–	0	121 ± 6
SFPETQKGVIFYESHGKLEYKDIP (SFPETQKGVIFYESHGKLEYKDIP)	–	–	0	118 ± 6
SGPETQKGVIFYESHGKLEYKDIP (SGPETQKGVIFYESHGKLEYKDIP)	–	–	0	84 ± 5
SHPETQKGVIFYESHGKLEYKDIP (SHPETQKGVIFYESHGKLEYKDIP)	–	–	0	125 ± 6
SKPETQKGVIFYESHGKLEYKDIP (SKPETQKGVIFYESHGKLEYKDIP)	–	–	0	151 ± 6
SLPETQKGVIFYESHGKLEYKDIP (SLPETQKGVIFYESHGKLEYKDIP)	–	–	0	126 ± 5
SMPETQKGVIFYESHGKLEYKDIP (SMPETQKGVIFYESHGKLEYKDIP)	–	–	0	140 ± 7
SNPETQKGVIFYESHGKLEYKDIP (SNPETQKGVIFYESHGKLEYKDIP)	–	–	0	116 ± 5
SPPETQKGVIFYESHGKLEYKDIP (SPPETQKGVIFYESHGKLEYKDIP)	–	–	0	0
SQPETQKGVIFYESHGKLEYKDIP (SQPETQKGVIFYESHGKLEYKDIP)	–	–	0	134 ± 7
